According to the RNAGym collection of RNA variant scans (doi:10.7554/elife.80360):

B1: CPEB3 Ribozyme (parent)
chain: GGGGGCCACAGCAGAAGCGUUCACGUCGCGGCCCCUGUCAGAUUCUGGUGAAUCUGCGAAUUCUGCUGU

Variants of: B1
Test: self-cleavage, relative activity (ratio to wild type); higher = more cleavage; co-transcriptional

Variant | self-cleavage
G28A C39U | 0.17
G28A C39A | 0.198
C27U G47U | 0.431
C27U G47C | 0.436
C27G U53A | 0.221
C27G U53C | 0.134
C27G U53G | 0.267
C27U G30U | 0.181
C27U G30C | 0.164
C27U G30A | 0.224
C27U U49G | 0.421
C27A C34G | 0.219
C27A C34U | 0.52
C27A C34A | 0.164
C27U G48C | 0.397
C27A C45A | 0.504
C27A C45G | 0.578
C27G C35U | 0.179
C27G C35A | 0.124
C27G C35G | 0.171
C27A G47C | 0.72
C27A G47U | 0.738
G28A C66G | 0.196
C27A C29G | 0.195

Variant | self-cleavage
C27U U67A | 0.276
C27U U67C | 0.332
G28A C57U | 0.137
G28A C57A | 0.136
G28A C57G | 0.17
C27G A51U | 0.15
C27G A51G | 0.217
C27G G58U | 0.193
C27G G58C | 0.231
C27G C33G | 0.241
C27A U53A | 0.344
C27A U53C | 0.213
C27U C66G | 0.262
C27U C66A | 0.179
C27U C66U | 0.203
G28A C63A | 0.182
G28A C63G | 0.178
C27U G28C | 0.218
C27U G28U | 0.187
C27A G41A | 0.196
C27A G41C | 0.149
C27U C29A | 0.192
G28A G31C | 0.208
C27G G48A | 0.156

Variant | self-cleavage
G28A C35U | 0.203
G28A C35A | 0.17
C27A U69C | 0.955
C27A U69G | 0.825
C27A U69A | 0.843
C27U G50A | 0.371
C27U G50U | 0.396
C27U C57G | 0.166
C27U C57A | 0.242
C27U U38A | 0.281
C27U U38C | 0.268
C27G C29G | 0.208
C27A G37U | 0.17
C27A G37C | 0.17
C27G G65A | 0.141
C27U G56C | 0.194
C27U G56A | 0.308
C27U G37C | 0.147
C27U G37U | 0.0803
C27G U64G | 0.25
C27G U64A | 0.215
G28A C33A | 0.18
G28A C33G | 0.195
G28A C33U | 0.22

Variant | self-cleavage
C27A G31C | 0.181
C27A G30C | 0.138
C27A G30A | 0.176
C27U U64G | 0.197
C27U U64C | 0.245
G28A G37C | 0.193
G28A G37A | 0.157
G28A G37U | 0.186
C27G G68C | 0.234
C27G G68U | 0.309
C27U A52C | 0.302
C27U A52U | 0.291
C27U A52G | 0.415
G28A G68C | 0.268
G28A G68U | 0.195
U26G U46G | 0.86
U26G U46A | 0.854
U26G U46C | 0.86
C27G U62A | 0.122
C27G U62G | 0.241
C27G U62C | 0.257
C27G U38C | 0.243
C27G U38A | 0.191
C27A A52C | 0.556

Variant | self-cleavage
C27G U44G | 0.155
C27G A59U | 0.216
C27G A59G | 0.259
C27G A59C | 0.151
C27G C39U | 0.138
C27A U36G | 0.146
C27A U36C | 0.261
C27G U49G | 0.112
C27G U49C | 0.22
C27G U49A | 0.209
C27A C66A | 0.334
C27A C66G | 0.327
C27U G68A | 0.614
C27U G68U | 0.432
C27U U55C | 0.143
C27U U55A | 0.184
C27G A52C | 0.191
C27G A52G | 0.24
C27G A52U | 0.132
C27A U62G | 0.241
C27A U62A | 0.288
C27A U62C | 0.365
G28A A40U | 0.167
G28A A40G | 0.214

Variant | self-cleavage
C27G U69C | 0.374
C27G U69A | 0.267
U26G U67C | 0.91
U26G U67A | 0.854
U26G U67G | 0.968
C27A U67C | 0.66
C27A U67A | 0.685
C27A C32A | 0.241
C27A C32G | 0.155
C27U A42C | 0.27
C27U A42G | 0.174
C27U G41U | 0.186
C27U G41C | 0.195
C27A U38C | 0.324
C27A U38A | 0.26
C27G A42C | 0.177
C27G A42G | 0.15
C27U U36A | 0.167
C27U U36G | 0.188
C27G U67A | 0.166
C27G U67G | 0.255
C27G U67C | 0.247
G28A A52G | 0.234
G28A G47C | 0.212

Variant | self-cleavage
G28A G47U | 0.262
C27G G47C | 0.226
C27A U44G | 0.295
C27A U44A | 0.439
C27A U44C | 0.354
C27G A40C | 0.258
C27G G50C | 0.141
C27G G50A | 0.17
C27G G50U | 0.175
C27A U49C | 0.702
C27A U49G | 0.59
U26G U61G | 0.558
C27U C34A | 0.201
C27U C34U | 0.415
C27A A59C | 0.247
C27A A59U | 0.245
C27U U62A | 0.217
C27A A51U | 0.577
C27G U43C | 0.239
G28A G58A | 0.189
G28A G58C | 0.231
G28A G58U | 0.2
G28A C29U | 0.177
